Results published in PMC5052687 (2016).

B1: MCvar1 PfEMP1 CIDRα2.8 domain (residues 576-745, C626S) [Plasmodium falciparum] / human CD36 ectodomain (residues 35-439) with C-terminal BAP tag, biotinylated [modified: biotin on the BAP tag (in vitro, BirA ligase); biotin on the BAP tag … (parent complex)
chain 1: EDKIMSYNAFFWMWVHDMLIDSIKWRDEHGRCINKDKGKTCIKGCNKKCISFQKWVEQKKTEWGKIKDHFRKQKDIPKDWTHDDFLQTLLMKDLLLEIIQDTYGDANEIKRIEALLEQAGVGGIDFAALAGLYTKGFVAEKDTTIDKLLQHEQKEADKCLKTHTDDTCPP
chain 2: QKTIKKQVVLEEGTIAFKNWVKTGTEVYRQFWIFDVQNPQEVMMNSSNIQVKQRGPYTYRVRFLAKENVTQDAEDNTVSFLQPNGAIFEPSLSVGTEADNFTVLNLAVAAASHIYQNQFVQMILNSLINKSKSSMFQVRTLRELLWGYRDPFLSLVPYPVTTTVGLFYPYNNTADGVYKVFNGKDNISKVAIIDTYKGKRNLSYWESHCDMINGTDAASFPPFVEKSQVLQFFSSDICRSIYAVFESDVNLKGIPVYRFVLPSKAFASPVENPDNYCFCTEKIISKNCTSYGVLDISKCKEGRPVYISLPHFLYASPDVSEPIDGLNPNEEEHRTYLDIEPITGFTLQFAKRLQVNLLVKPSEKIQVLKNLKRNYIVPILWLNETGTIGDEKANMFRSQVTGKIN

Variants of: B1
Test: SPR; plateau of the top sensorgram (highest analyte concentration of the series); concentrations not given; parent: 62; read off a plot

Question: With chain 1 D75A as the variant, how does the response read?
Answer: ~20 RU
